Key:
[1] = target: T1, ERp57, endogenous protein of murine K46 B cells (mouse, UniProt P27773 25-505); test: formaldehyde crosslinking, α-MZB1 immunoprecipitation and mass spectrometry; co-immunoprecipitation of endogenous proteins from K46 extracts
T1 sequence (looked up): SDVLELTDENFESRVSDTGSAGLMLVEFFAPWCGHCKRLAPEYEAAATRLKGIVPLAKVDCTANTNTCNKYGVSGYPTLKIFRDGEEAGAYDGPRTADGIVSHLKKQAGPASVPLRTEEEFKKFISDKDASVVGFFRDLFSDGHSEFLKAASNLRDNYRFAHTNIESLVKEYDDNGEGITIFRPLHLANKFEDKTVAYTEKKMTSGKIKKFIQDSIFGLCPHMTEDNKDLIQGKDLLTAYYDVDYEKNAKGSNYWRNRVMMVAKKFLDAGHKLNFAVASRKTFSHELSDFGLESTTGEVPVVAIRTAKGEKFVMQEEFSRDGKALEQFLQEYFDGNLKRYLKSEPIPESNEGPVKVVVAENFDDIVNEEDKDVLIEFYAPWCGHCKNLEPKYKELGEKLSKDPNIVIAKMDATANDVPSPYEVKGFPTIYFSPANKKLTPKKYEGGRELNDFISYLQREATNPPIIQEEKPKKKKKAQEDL
Method: (§1) Approximately […] of K46 mature B cells were cultured until reaching the exponential growth phase, harvested and in vivo formaldehyde crosslinking was performed by adding 1% formaldehyde (final concentration) directly to the K46 cell culture. Cells were incubated for 10 min at 37° C. and 5% CO₂ and the crosslinking reaction was quenched by addition of 2.5M glycine with a final concentration of 125 mM. After crosslinking, cells were collected, washed with ice-cold PBS and frozen at −80° C. prior to lysis. […] The immunoprecipitated proteins were eluted with sample buffer and separated on a 4%-12% gradient SDS-PAGE. The gel was silver stained. The marked bands (arrow) were cut out and prepared for mass spectrometry analysis.

[2] = target: GRP94 (Endoplasmin), endogenous protein of murine K46 B cells (mouse, UniProt P08113 22-802); test: as above
GRP94 (Endoplasmin), endogenous protein of murine K46 B cells, sequence (P08113 22-802 limits assumed): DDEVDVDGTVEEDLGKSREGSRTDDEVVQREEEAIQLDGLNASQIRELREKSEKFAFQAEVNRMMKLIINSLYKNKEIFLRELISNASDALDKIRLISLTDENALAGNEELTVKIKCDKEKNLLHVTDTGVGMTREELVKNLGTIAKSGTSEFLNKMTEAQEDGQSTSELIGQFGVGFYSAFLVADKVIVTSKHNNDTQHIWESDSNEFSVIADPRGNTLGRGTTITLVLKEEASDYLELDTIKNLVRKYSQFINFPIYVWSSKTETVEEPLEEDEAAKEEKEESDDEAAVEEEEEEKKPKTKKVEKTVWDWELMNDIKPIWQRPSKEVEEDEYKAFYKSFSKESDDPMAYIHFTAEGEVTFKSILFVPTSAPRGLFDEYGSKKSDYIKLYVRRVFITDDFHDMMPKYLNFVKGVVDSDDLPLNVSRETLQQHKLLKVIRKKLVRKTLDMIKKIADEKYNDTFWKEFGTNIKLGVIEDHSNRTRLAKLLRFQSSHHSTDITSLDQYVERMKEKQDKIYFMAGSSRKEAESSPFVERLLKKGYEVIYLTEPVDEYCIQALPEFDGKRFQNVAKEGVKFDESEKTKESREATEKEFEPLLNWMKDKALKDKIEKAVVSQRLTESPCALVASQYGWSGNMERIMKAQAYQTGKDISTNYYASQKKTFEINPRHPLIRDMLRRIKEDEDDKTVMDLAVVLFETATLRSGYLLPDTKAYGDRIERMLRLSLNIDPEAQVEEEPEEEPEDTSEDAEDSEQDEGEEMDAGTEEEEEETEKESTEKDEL
Method: as §1

[3] = target: T2, ERp44, endogenous protein of murine K46 B cells (mouse, UniProt Q9D1Q6 30-406); test: as above
T2 sequence (looked up): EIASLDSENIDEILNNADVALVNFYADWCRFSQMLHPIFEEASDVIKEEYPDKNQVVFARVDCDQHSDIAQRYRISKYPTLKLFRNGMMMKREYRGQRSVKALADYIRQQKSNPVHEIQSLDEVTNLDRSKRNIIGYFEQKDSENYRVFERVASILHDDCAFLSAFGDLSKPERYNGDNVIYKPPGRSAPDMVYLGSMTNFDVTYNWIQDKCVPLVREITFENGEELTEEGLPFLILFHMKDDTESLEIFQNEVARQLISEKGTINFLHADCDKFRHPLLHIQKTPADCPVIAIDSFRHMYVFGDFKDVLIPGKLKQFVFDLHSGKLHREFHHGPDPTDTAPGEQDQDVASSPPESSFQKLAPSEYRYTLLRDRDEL
Method: as §1

[4] = target: RACK1 (receptor for activated C kinase 1), endogenous protein of murine K46 B cells (mouse, UniProt P68040 1-317); test: reciprocal co-immunoprecipitation (α-RACK1; α-MZB1 5C11 Sepharose) from membrane and cytosolic fractions of K46 B cells, immunoblot

Measured: binding result

B1: MZB1 (marginal zone B1 B cell factor 1), endogenous protein of murine K46 mature B cells (other)
chain: GDRVSLSASAPTLDDEEKYSAHMPAHLRCDACRAVAFQMGQRLAKAEAKSHTPDASGLQELSESTYTDVLDQTCSQNWQSYGVHEVNQMKRLTGPGLSKGPEPRISVMISGGPWPNRLSKTCFHYLGEFGEDQIYEAYRQGQANLEALLCGGTHGPCSQEILAQREEL
notes: Endogenous protein in K46 cell extracts (whole cell, membrane or cytosolic fraction); also called AL1
binds: all assays above

Source: patent publication US20110129476A1 (MAX PLANCK GESELLSCHAFT ZUR FORDERUNG DER WISSENSCHAFTEN E V, published 2011)
